This passage reports self-cleavage results from the RNAGym collection of RNA variant scans (doi:10.7554/elife.90254).

B1: OR4K15 (parent)
chain: GUUAACGGUCAUAGGCCAUGGAAACUAGGAGCACCAUUUCGCUGCCAGUGAAGAAAUGAACAAAGAAAAUCUGGGCCAGGCAGGCAUCAAAAGAAAUAGUCUUGCGCUCAACCAGAAAGUCUGUAAUCAUUUUAAGGGUA

In this series the parent is B1. The experiment in a line: self-cleavage, relative activity (ratio to wild type); higher = more cleavage; in vitro, sequencing; the parent is a self-cleaving ribozyme.
Take GUUAACGGUCAUAGGCCAUGGAAACUAGGAGCACCAUUUCGCUGCCAGUGAAGAAAUGAACAAAGAAAAACUGGGCCAGGCAGGCAUCAAAAGAAAUAGUCUUGCGCUCAACCAGAAAGUUUGUAAUCAUUUUAAGGGUA [U70A C121U]: the self-cleavage turned out to be 2.35.
The result for GUUAACGGUCAUAGGCCAUGGAAACUAGGAGCACCAUUUCGCUGCCAGUGAAGAAAUGAACAAAGAAAAACUGGGCCAGGCAGGCAUCAAAAGAAAUAGUCUUGCGCUCAACCAGAAAGCCUGUAAUCAUUUUAAGGGUA [U70A U120C] reads 0.41; that for GUUAACGGUCAUAGGCCAUGGAAACUAGGAGCACCAUUUCGCUGCCAGUGAAGAAAUGAACAAAGAAAUUCUGGGCCAGGCAGGCAUCAAAAGAAAUAGUCUUGCGCUCAACCAGAAAGUCAGUAAUCAUUUUAAGGGUA [A69U U122A], 2.21; that for GUUAACGGUCAUAGGCCAUGGAAACUAGGAGCACCAUUUCGCUGCCAGUGAAGAAAUGAACAAAGAAAAACUGGGCCAGGCAGGCAUCGAAAGAAAUAGUCUUGCGCUCAACCAGAAAGUCUGUAAUCAUUUUAAGGGUA [U70A A89G], 1.13.
In the case of GUUAACGGUCAUAGGCCAUGGAAACUAGGAGCACCAUUUCGCUGCCAGUGAAGAAAUGAACAAAGAAAUUCUGGGCCAGGCAGGCAUCAAAAGAAAUAGUCUUGCGCUCAACCAGAAAGUCUGUAAUCAUCUUAAGGGUA [A69U U131C], the self-cleavage was 1.33.
The result for GUUAACGGUCAUAGGCCAUGGAAACUAGGAGCACCAUUUCGCUGCCAGUGAAGAAAUGAACAAAGAAAACCUGGGCCAGGCAGGCAUCUAAAGAAAUAGUCUUGCGCUCAACCAGAAAGUCUGUAAUCAUUUUAAGGGUA [U70C A89U] reads 1.17.
The result for GUUAACGGUCAUAGGCCAUGGAAACUAGGAGCACCAUUUCGCUGCCAGUGAAGAAAUGAACAAAGAAAACCUGGGCCAGGCAGGCAUCGAAAGAAAUAGUCUUGCGCUCAACCAGAAAGUCUGUAAUCAUUUUAAGGGUA [U70C A89G] reads 0.58; that for GUUAACGGUCAUAGGCCAUGGAAACUAGGAGCACCAUUUCGCUGCCAGUGAAGAAAUGAACAAAGAAAACCUGGGCCAGGCAGGCAUCCAAAGAAAUAGUCUUGCGCUCAACCAGAAAGUCUGUAAUCAUUUUAAGGGUA [U70C A89C], 0.49.
Consider GUUAACGGUCAUAGGCCAUGGAAACUAGGAGCACCAUUUCGCUGCCAGUGAAGAAAUGAACAAAGAAAACCUGGGCCAGGCAGGCAUCAAAAGAAAUAGUCUUGCGCUCAACCAGGAAGUCUGUAAUCAUUUUAAGGGUA [U70C A116G], for which the self-cleavage stood at 1.52.
The result for GUUAACGGUCAUAGGCCAUGGAAACUAGGAGCACCAUUUCGCUGCCAGUGAAGAAAUGAACAAAGAAAACCUGGGCCAGGCAGGCAUCAAGAGAAAUAGUCUUGCGCUCAACCAGAAAGUCUGUAAUCAUUUUAAGGGUA [U70C A91G] reads 0.6; that for GUUAACGGUCAUAGGCCAUGGAAACUAGGAGCACCAUUUCGCUGCCAGUGAAGAAAUGAACAAAGAAAAACUGGGCCAGGCAGGCAUCAAAAGAAAUAGUCUUGCGCUCAACCAGAAAGUCUGUAAACAUUUUAAGGGUA [U70A U127A], 2.27; that for GUUAACGGUCAUAGGCCAUGGAAACUAGGAGCACCAUUUCGCUGCCAGUGAAGAAAUGAACAAAGAAAAACUGGGCCAGGCAGGCAUCAAAAGAAAUAGUCUUGCGCUCAACCAGUAAGUCUGUAAUCAUUUUAAGGGUA [U70A A116U], 0.79.
The result for GUUAACGGUCAUAGGCCAUGGAAACUAGGAGCACCAUUUCGCUGCCAGUGAAGAAAUGAACAAAGAAAACCUGGGCCAGGCAGGCAUCAAAAGAAAUAGUCUUGCGCUCAACCGGAAAGUCUGUAAUCAUUUUAAGGGUA [U70C A114G] reads 0.12; that for GUUAACGGUCAUAGGCCAUGGAAACUAGGAGCACCAUUUCGCUGCCAGUGAAGAAAUGAACAAAGAAAUUCUGGGCCAGGCAGGCAUCAAAAGAAAUAGUCUUGCGCUCAACCAGAAAGUCUGUAAUCAUUCUAAGGGUA [A69U U132C], 1.11.
Take GUUAACGGUCAUAGGCCAUGGAAACUAGGAGCACCAUUUCGCUGCCAGUGAAGAAAUGAACAAAGAAAACCUGGGCCAGGCAGGCAUCAAAAGAAAUAGUCUUGCGCUCAUCCAGAAAGUCUGUAAUCAUUUUAAGGGUA [U70C A111U]: the self-cleavage is 0.07.
Regarding GUUAACGGUCAUAGGCCAUGGAAACUAGGAGCACCAUUUCGCUGCCAGUGAAGAAAUGAACAAAGAAAAACUGGGCCAGGCAGGCAUCAAAAGAAAUAGUCUUGUGCUCAACCAGAAAGUCUGUAAUCAUUUUAAGGGUA [U70A C105U], the self-cleavage turned out to be 0.16.
Regarding GUUAACGGUCAUAGGCCAUGGAAACUAGGAGCACCAUUUCGCUGCCAGUGAAGAAAUGAACAAAGAAAACCUGGGCCAGGCAGGCAUCAAAAGGAAUAGUCUUGCGCUCAACCAGAAAGUCUGUAAUCAUUUUAAGGGUA [U70C A94G], the self-cleavage stood at 0.77.
Regarding GUUAACGGUCAUAGGCCAUGGAAACUAGGAGCACCAUUUCGCUGCCAGUGAAGAAAUGAACAAAGAAAACCUGGGCCAGGCAGGCAUCAAAGGAAAUAGUCUUGCGCUCAACCAGAAAGUCUGUAAUCAUUUUAAGGGUA [U70C A92G], the self-cleavage came out at 0.82.
As to GUUAACGGUCAUAGGCCAUGGAAACUAGGAGCACCAUUUCGCUGCCAGUGAAGAAAUGAACAAAGAAAAACUGGGCCAGGCAGGCAUCAAAAGAAAUAGUCUUGCGCUCAGCCAGAAAGUCUGUAAUCAUUUUAAGGGUA [U70A A111G], the self-cleavage is 0.04.
The result for GUUAACGGUCAUAGGCCAUGGAAACUAGGAGCACCAUUUCGCUGCCAGUGAAGAAAUGAACAAAGAAAUUCUGGGCCAGGCAGGCAUCAAAAGAAAUAGUCUAGCGCUCAACCAGAAAGUCUGUAAUCAUUUUAAGGGUA [A69U U103A] reads 1.87.
The result for GUUAACGGUCAUAGGCCAUGGAAACUAGGAGCACCAUUUCGCUGCCAGUGAAGAAAUGAACAAAGAAAAACUGGGCCAGGCAGGCAUCAAAAGAAAUAGUCUUGCGCUCAACCAGAAAGUCUGUAAUCAUUUUAGGGGUA [U70A A135G] reads 0.74; that for GUUAACGGUCAUAGGCCAUGGAAACUAGGAGCACCAUUUCGCUGCCAGUGAAGAAAUGAACAAAGAAAAACUGGGCCAGGCAGGCAUCAAAAGAAAUAGUCUUGCGCUCAACCAGAAAGUCUGUGAUCAUUUUAAGGGUA [U70A A125G], 0.44.
With GUUAACGGUCAUAGGCCAUGGAAACUAGGAGCACCAUUUCGCUGCCAGUGAAGAAAUGAACAAAGAAAAACUGGGCCAGGCAGGCAUCAAAGGAAAUAGUCUUGCGCUCAACCAGAAAGUCUGUAAUCAUUUUAAGGGUA [U70A A92G], the self-cleavage was found to be 0.4.
The result for GUUAACGGUCAUAGGCCAUGGAAACUAGGAGCACCAUUUCGCUGCCAGUGAAGAAAUGAACAAAGAAAAACUGGGCCAGGCAGGCAUCAAAAGAAAUAGUCUUGCGCCCAACCAGAAAGUCUGUAAUCAUUUUAAGGGUA [U70A U108C] reads 0.01.
The result for GUUAACGGUCAUAGGCCAUGGAAACUAGGAGCACCAUUUCGCUGCCAGUGAAGAAAUGAACAAAGAAAAACUGGGCCAGGCAGGCAUCAAAAGAAAUAGUCUCGCGCUCAACCAGAAAGUCUGUAAUCAUUUUAAGGGUA [U70A U103C] reads 0.68; that for GUUAACGGUCAUAGGCCAUGGAAACUAGGAGCACCAUUUCGCUGCCAGUGAAGAAAUGAACAAAGAAAACCUGGGCCAGGCGGGCAUCAAAAGAAAUAGUCUUGCGCUCAACCAGAAAGUCUGUAAUCAUUUUAAGGGUA [U70C A82G], 0.31.
The result for GUUAACGGUCAUAGGCCAUGGAAACUAGGAGCACCAUUUCGCUGCCAGUGAAGAAAUGAACAAAGAAAUUCUGGGCCAGGCAGGCAUCAAAAGAAAUAGUCUUGCGCUCAACCAGAAAGUCUGUAACCAUUUUAAGGGUA [A69U U127C] reads 1.46; that for GUUAACGGUCAUAGGCCAUGGAAACUAGGAGCACCAUUUCGCUGCCAGUGAAGAAAUGAACAAAGAAAUUCUGGGCCAGGCAGGCAUCAAAAGAAAUAGUCUUGCGCUCAACCAGAAAGUCUGUAAUCACUUUAAGGGUA [A69U U130C], 0.9.
As to GUUAACGGUCAUAGGCCAUGGAAACUAGGAGCACCAUUUCGCUGCCAGUGAAGAAAUGAACAAAGAAAUUCUGGGCCAGGCAGGCAUCAAAAGAAAUAGCCUUGCGCUCAACCAGAAAGUCUGUAAUCAUUUUAAGGGUA [A69U U100C], the self-cleavage worked out at 2.44.
Consider GUUAACGGUCAUAGGCCAUGGAAACUAGGAGCACCAUUUCGCUGCCAGUGAAGAAAUGAACAAAGAAAACCUGGGCCAGGCAGGCGUCAAAAGAAAUAGUCUUGCGCUCAACCAGAAAGUCUGUAAUCAUUUUAAGGGUA [U70C A86G], for which the self-cleavage stood at 0.86.
The result for GUUAACGGUCAUAGGCCAUGGAAACUAGGAGCACCAUUUCGCUGCCAGUGAAGAAAUGAACAAAGAAAAACUGGGCCAGGCAGGCAUCAAAAGAAAUAGUCAUGCGCUCAACCAGAAAGUCUGUAAUCAUUUUAAGGGUA [U70A U102A] reads 0.25.
Take GUUAACGGUCAUAGGCCAUGGAAACUAGGAGCACCAUUUCGCUGCCAGUGAAGAAAUGAACAAAGAAAAACUGGGCCAGGCAGGCAUCAAAAGAAAUAGUCUUGCGCUCAACCAGAAAGUCUGUAAUCAUUUUAAGGGCA [U70A U139C]: the self-cleavage is 1.06.
Consider GUUAACGGUCAUAGGCCAUGGAAACUAGGAGCACCAUUUCGCUGCCAGUGAAGAAAUGAACAAAGAAAACCUGGGCCAGGCAGGCAUCAAAAGAAAUAGUCUUGCGCUCUACCAGAAAGUCUGUAAUCAUUUUAAGGGUA [U70C A110U], for which the self-cleavage turned out to be 0.92.
The result for GUUAACGGUCAUAGGCCAUGGAAACUAGGAGCACCAUUUCGCUGCCAGUGAAGAAAUGAACAAAGAAAAACUGGGCCAGGCAGGCAUCAAGAGAAAUAGUCUUGCGCUCAACCAGAAAGUCUGUAAUCAUUUUAAGGGUA [U70A A91G] reads 1.22; that for GUUAACGGUCAUAGGCCAUGGAAACUAGGAGCACCAUUUCGCUGCCAGUGAAGAAAUGAACAAAGAAAACCUGGGCCAGGCAGGCAUCAGAAGAAAUAGUCUUGCGCUCAACCAGAAAGUCUGUAAUCAUUUUAAGGGUA [U70C A90G], 0.83.
The result for GUUAACGGUCAUAGGCCAUGGAAACUAGGAGCACCAUUUCGCUGCCAGUGAAGAAAUGAACAAAGAAAACCUGGGCCAGGCAGGCAUCAAAAGAAGUAGUCUUGCGCUCAACCAGAAAGUCUGUAAUCAUUUUAAGGGUA [U70C A96G] reads 0.75; that for GUUAACGGUCAUAGGCCAUGGAAACUAGGAGCACCAUUUCGCUGCCAGUGAAGAAAUGAACAAAGAAAUUCUGGGCCAGGCAGGCAUCAAAAGAAAUAGUCUUGCGCUCAACCAGAAAGACUGUAAUCAUUUUAAGGGUA [A69U U120A], 1.84.
With GUUAACGGUCAUAGGCCAUGGAAACUAGGAGCACCAUUUCGCUGCCAGUGAAGAAAUGAACAAAGAAAACCUGGGCCAGGCAGGCAUCAAAAGAAAUGGUCUUGCGCUCAACCAGAAAGUCUGUAAUCAUUUUAAGGGUA [U70C A98G], the self-cleavage worked out at 0.41.
The result for GUUAACGGUCAUAGGCCAUGGAAACUAGGAGCACCAUUUCGCUGCCAGUGAAGAAAUGAACAAAGAAAACCUGGGCCGGGCAGGCAUCAAAAGAAAUAGUCUUGCGCUCAACCAGAAAGUCUGUAAUCAUUUUAAGGGUA [U70C A78G] reads 0.26; that for GUUAACGGUCAUAGGCCAUGGAAACUAGGAGCACCAUUUCGCUGCCAGUGAAGAAAUGAACAAAGAAAAACUGGGCCAGGCAGGCAUCAAAAGAAAUAGUCUUGCGCUCAACCAGAAAGUCUGUAAUCACUUUAAGGGUA [U70A U130C], 0.61.
The result for GUUAACGGUCAUAGGCCAUGGAAACUAGGAGCACCAUUUCGCUGCCAGUGAAGAAAUGAACAAAGAAAUUCUGGGCCAGGCAGGCAUCAAAAGAAAAAGUCUUGCGCUCAACCAGAAAGUCUGUAAUCAUUUUAAGGGUA [A69U U97A] reads 2.51.
